Bridge positions count the residues as written; N and C are the ends. Square brackets hold non-standard residues; d marks the D form. Ends that are not written are not given here.
Biological target: hMuSK-Fc (chimeric protein of the secretory human MuSK extracellular portion and human IgG1 Fc) (human) (UniProt O15146)
Experiment: SPR (Biacore T200), Fc-tagged human MuSK on Protein G/A chip, 1:1 fit

hMuSK-Fc (chimeric protein of the secretory human MuSK extracellular portion and human IgG1 Fc) (human), sequence (O15146 24-493, change not shown, form in doubt): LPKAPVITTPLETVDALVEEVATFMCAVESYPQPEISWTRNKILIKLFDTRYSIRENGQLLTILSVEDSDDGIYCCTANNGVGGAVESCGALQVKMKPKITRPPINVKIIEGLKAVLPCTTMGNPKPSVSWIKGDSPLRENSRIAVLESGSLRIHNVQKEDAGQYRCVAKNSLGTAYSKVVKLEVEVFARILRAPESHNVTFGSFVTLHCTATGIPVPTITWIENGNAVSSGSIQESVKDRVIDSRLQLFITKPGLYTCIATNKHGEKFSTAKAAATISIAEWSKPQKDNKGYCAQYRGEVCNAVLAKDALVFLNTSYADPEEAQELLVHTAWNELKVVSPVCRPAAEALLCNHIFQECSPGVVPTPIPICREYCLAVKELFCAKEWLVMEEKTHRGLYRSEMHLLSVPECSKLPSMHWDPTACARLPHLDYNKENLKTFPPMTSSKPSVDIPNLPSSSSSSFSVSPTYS

B1: Homodimer of MuSK7 with an introduced palmitoyl group (MuSK7-pal) (peptide)
peptide: {CH2CO}-[dY]PSYHTNVVASLKRC
modifications: thioether N-15; also: homodimer: two peptides condensed via C-terminal Cys carboxyl with linking unit bearing palmitic acid
  Kd: 0.9 nM

Reference: EP4722228A1, “NEW COMPOUND TARGETING MUSK AND USE THEREOF” (The University of Tokyo, priority 2023, dated 2024)
